In article PMC6486709:

Substrate: C/C(=C\Cc1c(O)c(Cl)c(C)c(C=O)c1O)CC/C=C(\C)[C@@H](O)C[C@@H]1OC1(C)C
Experiment: cells, lysate or membranes
Conditions: microsomal fraction of ascI-expressing yeast

B1: AscI (Acremonium egyptiacum) (protein)
chain: MPQLAGKLILAGLIPLGAWVLHGFASCNGLIQMFEDFGKQTVLSDGVTDYTGAFTGLEGLDRLLRTLLNFFWPVANGHDWALSLHAFMFAGQGVPLLVLNMLEGARPGNKSLVVSYVTVFGILYMVVGLAIMAPLYLFLHLLTSRTATAPSKAKVAVDPNTAKAVGFGVFVGYVLPTIFMSLPHPSLLSTDTKVLSVVFWQAVPLWASVCAYFASTALGQSATSRSSSNLPSALGAVYAASLIIATATHVATFAISANLSDTWSGIFTFLIPPNPFNTDMRISSFLEGATWFLQWDYTMMSLAYMVWAIGIRHGVEVPRSSHHFETLGKIALRSMAKLLVMGPIGAALSLVWERDQLLWQLDSESGEKGEKNRSRRMSRKWMFS
- Km: 50.4 ± 11.1 µM
